Tests used:
SARS-CoV-2 南非beta突变型S1抗原 = target: T1, SARS-CoV-2 南非beta突变型S1抗原 (SARS-CoV-2 beta variant, UniProt P0DTC2 16-685); assay: SPR, Biacore T200, antigen coupled to CM5 chip, nanobody as analyte
T1 construct: domain: S1; also called beta突变体抗原; beta变异突变株

[1] = target: T2, SARS-CoV-2 印度delta突变型S1抗原 (SARS-CoV-2 delta variant, UniProt P0DTC2 16-685); assay: as above
T2 construct: domain: S1; also called delta突变体抗原; delta变异突变株

| Binder | Kd (SARS-CoV-2 南非beta突变型S1抗原) | Kd [1] |
| --- | --- | --- |
| R-30 (VHH, also called 第一株RBD纳米抗体R-30) VHH: QVQLQESGGGLVQSGGSLRLSCTASGGIIRLNSMGWYRQAPGKQREPVATIVSDVGTNYADSVKGRFTISRDNAKNTIYLQMNSLKFEDTAVYYCVADRAFVLRGEYEYWGQGTQVTVSS | ~100 pM | ~100 pM |
| S1-28 (VHH, also called 第二株RBD纳米抗体S1-28) VHH: QVQLQESGGGLVQPGGSLRLSCTASGGIIRLNSMGWYRQAPGKQREPVATIVSDVGTNYADSVKGRFTISRDNAKNTIYLQMNSPKFEDTAVYYCVADRAFVLRGEYEYWGQGTQVTVSS | ~100 pM | ~100 pM |
| S1-51 (VHH, also called 第三株RBD纳米抗体S1-51) VHH: QVQLQESGGGLVQSGGSLRLSCAASGGVSRLNSMGWYRQAPGKQRELVATIISDVGTNYADSVKGRFTISRDNAANTVYLQMNSLKFEDTAVYYCVADRAFVLRGEYEYWGQGTQVTVSS | ~100 pM | ~100 pM |
| S1-24 (VHH, also called 第四株RBD纳米抗体S1-24) VHH: QVQLQESGGGLVQSGGSLRLSCAASGGVSRLNSMGWYRQAQGKQRELVATIVNDVGTNYADSVKGRFTISRDNAANTVYLLMNSLKFEDTAVYNCVADRAFVLRGEYEYWGQGTQVTVSS | ~100 pM | ~100 pM |
